Experimental data reported in the supplement of paper PMC10724198.
± gives the standard deviation of the averaged measurements.

Tested on: Saccharomyces cerevisiae
Test: protein stability index of tFT-peptide fusion (C-terminal peptide) (PSI (0-1 scale)); higher = more stable (slower turnover)
Settings: temperature: 30 C
Description: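 MPS profiling in S. cerevisiae of the yeast C-terminome library: the last 12 aa of each annotated ORF are fused to the C-terminus of a sfGFP-mCherry timer, after a GGGS linker. Cells are FACS-sorted into 8 mCherry/sfGFP bins and deep-sequenced. PSI runs from 0 (unstable) to 1 (stable); wild type and das1Δ backgrounds, two technical replicates each.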

[1] = genetic background: das1 deletion

| Sequence | protein stability index [1] | protein stability index (genetic background: wild type) |
| --- | --- | --- |
| AIRRGLTKKNEK [GDE1 C-terminal 12 aa] | 0.72 ± 0.013 | 0.65687 ± 0.00059 |
| SSYNSNVGHIKN [WHI3 C-terminal 12 aa] | 0.705 ± 0.019 | 0.736 ± 0.0042 |
| SPIQLKDLESQI [SYS1 C-terminal 12 aa] | 0.677 ± 0.019 | 0.717 ± 0.0082 |
| AKEESSDSENET [CDC123 C-terminal 12 aa] | 0.6497 ± 0.004 | 0.703 ± 0.091 |
| GVEKYWGILSNE [SCW4 C-terminal 12 aa] | 0.723 ± 0.0089 | 0.726 ± 0.039 |
| LELEFNSHFELK [HNT3 C-terminal 12 aa] | 0.69 ± 0.008 | 0.7 ± 0.041 |
| GTQVMYISEQKI [LSM6 C-terminal 12 aa] | 0.698 ± 0.0048 | 0.713 ± 0.016 |
| LKPWEGRIYISE [IMA1 C-terminal 12 aa] | 0.714 ± 0.016 | 0.6846 ± 0.0068 |
| RRSKKWYSFIFN [SCO2 C-terminal 12 aa] | 0.75 ± 0.018 | 0.731 ± 0.098 |
| QRIEGMLQLLTS [UTP15 C-terminal 12 aa] | 0.715 ± 0.025 | 0.64093 ± 0.00026 |
| HAKGSGNTMNRG [TAP42 C-terminal 12 aa] | 0.691 ± 0.029 | 0.664 ± 0.015 |
| MPSATTKNPYAQ [CAF120 C-terminal 12 aa] | 0.709 ± 0.042 | 0.686 ± 0.034 |
| DSATLVNVHIKR [SPR3 C-terminal 12 aa] | 0.7064 ± 0.0062 | 0.7269 ± 0.0019 |
| VFNNISLNFYIQ [YLL020C C-terminal 12 aa] | 0.782 ± 0.059 | 0.692 ± 0.0021 |
| EMNNIIAASRRH [RPL36A C-terminal 12 aa] | 0.701 ± 0.0077 | 0.713 ± 0.048 |
| KGLFWDPACVIA [MFA2 C-terminal 12 aa] | 0.731 ± 0.022 | 0.728 ± 0.029 |
| LDQFEINSDGEE [NCS2 C-terminal 12 aa] | 0.691 ± 0.022 | 0.709 ± 0.012 |
| DNTKESKDVKMN [RTT102 C-terminal 12 aa] | 0.6878 ± 0.004 | 0.673 ± 0.081 |
| EEESTTSENLHF [RSM25 C-terminal 12 aa] | 0.699 ± 0.0097 | 0.69 ± 0.025 |
| QGALDSLLNGDV [DSK2 C-terminal 12 aa] | 0.685 ± 0.03 | 0.701 ± 0.019 |
| PGWDFNVQIFAI [HRD3 C-terminal 12 aa] | 0.618 ± 0.005 | 0.607 ± 0.0086 |

| Sequence | protein stability index [1] | protein stability index (genetic background: wild type) |
| --- | --- | --- |
| IIDELQKCHMQE [CDC27 C-terminal 12 aa] | 0.706 ± 0.0081 | 0.6895 ± 0.0016 |
| RQTRNQTKELDS [DPB11 C-terminal 12 aa] | 0.703 ± 0.033 | 0.691 ± 0.037 |
| VKEYYKKSDVGR [ATG9 C-terminal 12 aa] | 0.7026 ± 0.004 | 0.66 ± 0.011 |
| FFRQWWDIIQSK [YMR316C-A C-terminal 12 aa] | 0.7 ± 0.025 | 0.671 ± 0.012 |
| FYSVFALMVIFV [YIP1 C-terminal 12 aa] | 0.178 ± 0.013 | 0.122 ± 0.003 |
| ENASQLPHPSQK [ZIM17 C-terminal 12 aa] | 0.698 ± 0.024 | 0.691 ± 0.021 |
| SDIFSFLDETYE [PHO92 C-terminal 12 aa] | 0.7281 ± 0.007 | 0.718 ± 0.02 |
| GHSHKHKGHQKK [KRI1 C-terminal 12 aa] | 0.673 ± 0.008 | 0.667 ± 0.018 |
| SFSDLTLHAIEY [BER1 C-terminal 12 aa] | 0.724 ± 0.031 | 0.69 ± 0.019 |
| FVLSISFRQEQT [YER172C-A C-terminal 12 aa] | 0.577 ± 0.042 | 0.591 ± 0.025 |
| NVAAAEASKKGN [YET1 C-terminal 12 aa] | 0.728 ± 0.033 | 0.685 ± 0.053 |
| LLIPRRILTLDL [PDL32 C-terminal 12 aa] | 0.602 ± 0.001 | 0.605 ± 0.036 |
| LLLSFYFDFYPF [YEL050W-A C-terminal 12 aa] | 0.515 ± 0.009 | 0.6535 ± 0.0032 |
| YKNKVGVGIPFI [STE14 C-terminal 12 aa] | 0.728 ± 0.019 | 0.7065 ± 0.0057 |
| EQLEEEFVRQEH [OSW7 C-terminal 12 aa] | 0.7319 ± 0.00083 | 0.7301 ± 0.0026 |
| SRGHDLASEYPL [ERS1 C-terminal 12 aa] | 0.706 ± 0.015 | 0.682 ± 0.0085 |
| EEMEEFKKLVMG [MIC19 C-terminal 12 aa] | 0.7037 ± 0.0043 | 0.6922 ± 0.00094 |
| HELSKDFSNLGI [NAM7 C-terminal 12 aa] | 0.7008 ± 0.00089 | 0.683 ± 0.038 |
| LFVEETNDIGYK [TRE2 C-terminal 12 aa] | 0.736 ± 0.026 | 0.691 ± 0.021 |
| VSKELRSRDLLD [RPE1 C-terminal 12 aa] | 0.68 ± 0.027 | 0.699 ± 0.0075 |
| NVGNNEETLDDH [RAD34 C-terminal 12 aa] | 0.726 ± 0.047 | 0.701 ± 0.067 |

| Sequence | protein stability index [1] | protein stability index (genetic background: wild type) |
| --- | --- | --- |
| NVWDWNNWTSAT [GAL11 C-terminal 12 aa] | 0.7485 ± 0.006 | 0.767 ± 0.012 |
| SSSSNFLEESSS [YER148W-A C-terminal 12 aa] | 0.7024 ± 0.00079 | 0.6861 ± 0.006 |
| LAFYLRRLTAKK [RPS8A C-terminal 12 aa] | 0.674 ± 0.041 | 0.657 ± 0.0076 |
| IFHELKRQNSKN [RGD2 C-terminal 12 aa] | 0.739 ± 0.035 | 0.717 ± 0.052 |
| IQVVKSKVLNIE [YDR248C C-terminal 12 aa] | 0.691 ± 0.028 | 0.653 ± 0.016 |
| ETNFWTAALEYE [THI20 C-terminal 12 aa] | 0.723 ± 0.011 | 0.759 ± 0.034 |
| TRSSGDDQVFVF [PGA3 C-terminal 12 aa] | 0.707 ± 0.0082 | 0.707 ± 0.012 |
| VLSVISAVFGLI [PLB1 C-terminal 12 aa] | 0.674 ± 0.016 | 0.672 ± 0.045 |
| ETIAEEMDSVHT [YAL064W-B C-terminal 12 aa] | 0.682 ± 0.012 | 0.662 ± 0.018 |
| SIIFLLLSYLLF [SAG1 C-terminal 12 aa] | 0.392 ± 0.042 | 0.381 ± 0.0067 |
| SAYMYTKRRFGF [MNR2 C-terminal 12 aa] | 0.712 ± 0.021 | 0.647 ± 0.017 |
| CDSEMFASSKDE [ERI1 C-terminal 12 aa] | 0.698 ± 0.0072 | 0.74 ± 0.053 |
| AILREVQFEVFR [NTA1 C-terminal 12 aa] | 0.699 ± 0.019 | 0.7068 ± 0.00076 |
| KNEELSKKHFSK [ROK1 C-terminal 12 aa] | 0.718 ± 0.013 | 0.74 ± 0.12 |
| KFKIQNILNSTF [SIP4 C-terminal 12 aa] | 0.714 ± 0.011 | 0.711 ± 0.0095 |
| SSVKNSVEMTDF [TDA11 C-terminal 12 aa] | 0.7099 ± 0.0049 | 0.698 ± 0.012 |
| SILGMQDMWKAT [PEX11 C-terminal 12 aa] | 0.707 ± 0.017 | 0.713 ± 0.022 |
| EDVQLALNKHMN [YAP1 C-terminal 12 aa] | 0.685 ± 0.01 | 0.69 ± 0.0072 |
| LGDAYVSSDEEF [YEF3 C-terminal 12 aa] | 0.683 ± 0.016 | 0.6769 ± 0.0049 |
| EADMKTKLDISD [NBP2 C-terminal 12 aa] | 0.695 ± 0.015 | 0.696 ± 0.023 |
| PLVHEVNGNEGK [DUF1 C-terminal 12 aa] | 0.68 ± 0.011 | 0.716 ± 0.076 |

| Sequence | protein stability index [1] | protein stability index (genetic background: wild type) |
| --- | --- | --- |
| ENVDSPRKSNQL [SLM2 C-terminal 12 aa] | 0.69 ± 0.018 | 0.678 ± 0.014 |
| ALNDIAKASYIY [CTK3 C-terminal 12 aa] | 0.677 ± 0.034 | 0.648 ± 0.016 |
| LPPEGKPKGKDD [TAZ1 C-terminal 12 aa] | 0.701 ± 0.018 | 0.661 ± 0.018 |
| QQLQSPTAPPTE [COX14 C-terminal 12 aa] | 0.727 ± 0.008 | 0.694 ± 0.038 |
| FCKEKVYSKLLV [YNL103W-A C-terminal 12 aa] | 0.648 ± 0.015 | 0.559 ± 0.0084 |
| QIVNSTPVFTWC [LSB6 C-terminal 12 aa] | 0.653 ± 0.03 | 0.652 ± 0.034 |
| NKGSQLLAKLLK [PUF6 C-terminal 12 aa] | 0.7305 ± 0.0034 | 0.674 ± 0.036 |
| DTVPPEKLMKFV [RAX2 C-terminal 12 aa] | 0.7111 ± 0.0024 | 0.66 ± 0.027 |
| EIKEMLVTLINK [SRL2 C-terminal 12 aa] | 0.6725 ± 0.002 | 0.652 ± 0.028 |
| FGDNSKHKTDKI [BOI2 C-terminal 12 aa] | 0.712 ± 0.042 | 0.685 ± 0.019 |
| ASQAKNSIEDDV [GTR2 C-terminal 12 aa] | 0.721 ± 0.021 | 0.689 ± 0.031 |
| FEWEDDESDEIA [ATG7 C-terminal 12 aa] | 0.7397 ± 0.004 | 0.706 ± 0.035 |
| KTDPNEPANDYR [DLD1 C-terminal 12 aa] | 0.6799 ± 0.00072 | 0.686 ± 0.032 |
| DCGWVSDAYKNH [LCL2 C-terminal 12 aa] | 0.735 ± 0.019 | 0.724 ± 0.043 |
| EHDKSPLSRKRQ [SFI1 C-terminal 12 aa] | 0.708 ± 0.015 | 0.703 ± 0.035 |
| KADIACAGKQLI [YHL042W C-terminal 12 aa] | 0.676 ± 0.0096 | 0.698 ± 0.0097 |
| LYVCIYISAFIK [FYV12 C-terminal 12 aa] | 0.137 ± 0.019 | 0.143 ± 0.0053 |
| IQAMLKSLDSLK [SNL1 C-terminal 12 aa] | 0.691 ± 0.034 | 0.66 ± 0.03 |
| VLNFFKRRSMRV [KIN4 C-terminal 12 aa] | 0.625 ± 0.013 | 0.634 ± 0.084 |
